Assay results from publication PMC13121748, “Phase separation of PGL-3 driven by structured domains that oligomerize and interact with RGG motifs” (EMBO Reports, 2025).
Values joined by “and” are separate entries in the source; they are usually repeats but may differ in a detail not shown here. Equal entries are not always repeated.

How the values were obtained:
[1] = target: PGL-3(D1-D2) (C. elegans) (UniProt G5EBV6)
PGL-3(D1) [2] = target: T1, PGL-3(D1) (C. elegans, trace-labelled with DyLight 488 (NHS ester) in the FA crosslinking; biotinylated with NHS-PEG12-Biotin when immobilised in BLI); experiment: BLI; biotinylated D1 on streptavidin tips, RGG peptide in solution; 125 mM NaCl, 0.01 mg/ml BSA, 0.02% Tween-20, 25 mM HEPES pH 7.5; 1:1 binding model; Octet Red96
T1 chain: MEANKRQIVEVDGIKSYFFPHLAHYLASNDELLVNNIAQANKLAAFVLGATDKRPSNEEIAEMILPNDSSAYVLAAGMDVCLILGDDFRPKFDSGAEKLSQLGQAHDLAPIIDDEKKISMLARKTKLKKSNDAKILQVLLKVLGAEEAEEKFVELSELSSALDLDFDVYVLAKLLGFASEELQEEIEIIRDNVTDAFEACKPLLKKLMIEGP

PGL-3(D1) [3] = target: T1, PGL-3(D1); experiment: BLI
[4] = target: PGL-3(D1-D2) (C. elegans) (UniProt G5EBV6); remark: listed apart in the source
[5] = target: PGL-3(D1-D2) (C. elegans) (UniProt G5EBV6); remark: listed apart in the source
[6] = target: the molecule itself; experiment: cross-linking; XL-MS: 7.5 uM full-length PGL-3, 2 mM DSBU, 1 h room temperature, 25 mM HEPES pH 7.5, 125 mM NaCl (condensing) or 500 mM NaCl (non-condensing); trypsin digest, LC-MS/MS, Scout search
[7] = target: the molecule itself; experiment: mass photometry; unlabeled D1-D2 at 50 to 100 nM in 125 mM NaCl, 25 mM HEPES pH 7.5, TwoMP (Refeyn)
[8] = target: T2, PGL-3 RGG region peptide (native) (Caenorhabditis elegans, UniProt G5EBV6 623-693); experiment: BLI; RNA on tip, RGG peptide in solution; 1:1 fit; KD ~2-fold higher than RGG:D1, value not given; BLI: 25 mM HEPES pH 7.5, 125 mM NaCl, 0.01 mg/ml BSA, 0.02% Tween-20, temperature not stated; condensate assays at 125 mM NaCl; conditions: tags: none; unlabeled in BLI; label: 5' biotin; single strand
T2 sequence: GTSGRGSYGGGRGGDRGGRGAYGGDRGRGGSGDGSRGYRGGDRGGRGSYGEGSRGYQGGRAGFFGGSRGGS

B1: PGL-3(RGG) synthetic peptide spanning the RGG region (peptide)
chain: T2 sequence
modifications: trace-labelled with Alexa Fluor 647 (NHS ester) in the FA crosslinking and partitioning; biotinylated with NHS-PEG12-Biotin when immobilised in BLI
With B1 as the binder, how does the partition coefficient of the RGG peptide in D1-D2 condensates (5 uM each, in trans) [1] read?
The partition coefficient of the RGG peptide in D1-D2 condensates (5 uM each, in trans) was 1.3.

And the fold faster koff than RGG:poly(U) RNA (PGL-3(D1) [2])?
The fold faster koff than RGG:poly(U) RNA was 10 fold.

What about the fold faster kon than RGG:poly(U) RNA (PGL-3(D1) [2]) of the same binder?
Its fold faster kon than RGG:poly(U) RNA is 20 fold.

What about the fold lower KD than RGG:poly(U) RNA (PGL-3(D1) [2]) of the same binder?
The fold lower KD than RGG:poly(U) RNA was 2 fold.

And the Kd (PGL-3(D1) [3])?
The Kd was 1630 nM.

What about the fraction of D1-D2 in the pellet (dense phase) with equimolar RGG peptide against buffer control [4] of the same binder?
The fraction of D1-D2 in the pellet (dense phase) with equimolar RGG peptide against buffer control was 15%.

What about the viscosity of D1-D2 condensates formed with equimolar RGG peptide against buffer (embedded beads) [5] of the same binder?
The viscosity of D1-D2 condensates formed with equimolar RGG peptide against buffer (embedded beads) was 1.25 fold.

B2: full-length, untagged PGL-3 (natural protein, C. elegans, UniProt G5EBV6 1-693, looked up)
chain: MEANKRQIVEVDGIKSYFFPHLAHYLASNDELLVNNIAQANKLAAFVLGATDKRPSNEEIAEMILPNDSSAYVLAAGMDVCLILGDDFRPKFDSGAEKLSQLGQAHDLAPIIDDEKKISMLARKTKLKKSNDAKILQVLLKVLGAEEAEEKFVELSELSSALDLDFDVYVLAKLLGFASEELQEEIEIIRDNVTDAFEACKPLLKKLMIEGPKIDSVDPFTQLLLTPQEESIEKAVSHIVARFEEASAVEDDESLVLKSQLGYQLIFLVVRSLADGKRDASRTIQSLMPSSVRAEVFPGLQRSVFKSAVFLASHIIQVFLGSMKSFEDWAFVGLAEDLESTWRRRAIAELLKKFRISVLEQCFSQPIPLLPQSELNNETVIENVNNALQFALWITEFYGSESEKKSLNQLQFLSPKSKNLLVDSFKKFAQGLDSKDHVNRIIESLEKSSSSEPSATAKQTTTSNGPTTVSTAAQVVTVEKMPFSRQTIPCEGTDLANVLNSAKIIGESVTVAAHDVIPEKLNAEKNDNTPSTASPVQFSSDGWDSPTKSVALPPKISTLEEEQEEDTTITKVSPQPQERTGTAWGSGDATPVPLATPVNEYKVSGFGAAPVASGFGQFASSNGTSGRGSYGGGRGGDRGGRGAYGGDRGRGGSGDGSRGYRGGDRGGRGSYGEGSRGYQGGRAGFFGGSRGGS
notes: PGL-3, C. elegans P granule protein, full length (D1, D2, internal IDR, C-terminal RGG region; residues to 693); also called PGL-3(FL); FL; not shown: 6xHis-MBP-6xHis, N-terminal, cleaved
Does B2 bind [6]?
Result: binds

B3: PGL-3(D1-D2) (domain or fragment, C. elegans, UniProt G5EBV6 1-447, looked up)
chain: MEANKRQIVEVDGIKSYFFPHLAHYLASNDELLVNNIAQANKLAAFVLGATDKRPSNEEIAEMILPNDSSAYVLAAGMDVCLILGDDFRPKFDSGAEKLSQLGQAHDLAPIIDDEKKISMLARKTKLKKSNDAKILQVLLKVLGAEEAEEKFVELSELSSALDLDFDVYVLAKLLGFASEELQEEIEIIRDNVTDAFEACKPLLKKLMIEGPKIDSVDPFTQLLLTPQEESIEKAVSHIVARFEEASAVEDDESLVLKSQLGYQLIFLVVRSLADGKRDASRTIQSLMPSSVRAEVFPGLQRSVFKSAVFLASHIIQVFLGSMKSFEDWAFVGLAEDLESTWRRRAIAELLKKFRISVLEQCFSQPIPLLPQSELNNETVIENVNNALQFALWITEFYGSESEKKSLNQLQFLSPKSKNLLVDSFKKFAQGLDSKDHVNRIIESLEK
modifications: unlabeled in mass photometry; trace-labelled with DyLight 488 (partitioning) or Alexa Fluor 647 (pelleting) by NHS ester
notes: PGL-3, C. elegans, the first 447 amino acids, which span the folded domains D1 and D2; also called D1-D2 domain; not shown: 6xHis-MBP-6xHis, N-terminal, cleaved
How did the “stoichiometry N” value [7] turn out when B3 was run?
Its value is 2 and 4 and 6.

B4: poly(U) 30-nt RNA (ssRNA)
RNA: UUUUUUUUUUUUUUUUUUUUUUUUUUUUUU
Does B4 bind [8]?
Result: binds
